Results published in publication doi:10.1101/2024.01.05.574328.

Molecular target: AcrIF25 (A. baumannii)
Assay: cross-linking

Substance: AcrIF25 (natural protein)
- stoichiometry N: 2
